From publication PMC11878792

Target: wt human lysyl-tRNA synthetase (h-LysRS, cytosolic) (human) (UniProt Q15046)
Test: EMSA
Settings: 1 mM Mg2+, Kd values printed only in Fig. 4C, EMSA: 20 mM HEPES pH 7.4, 60 mM NaCl, 10 mM KCl, 1 mM MgCl2, 400 uM DTT, 8% glycerol, room temperature 30 min, 37.5 nM tRNA, 0-5 uM LysRS, Hill fit, SYBR Gold …

Chain of wt human lysyl-tRNA synthetase (h-LysRS, cytosolic) (human) (Q15046 whole entry): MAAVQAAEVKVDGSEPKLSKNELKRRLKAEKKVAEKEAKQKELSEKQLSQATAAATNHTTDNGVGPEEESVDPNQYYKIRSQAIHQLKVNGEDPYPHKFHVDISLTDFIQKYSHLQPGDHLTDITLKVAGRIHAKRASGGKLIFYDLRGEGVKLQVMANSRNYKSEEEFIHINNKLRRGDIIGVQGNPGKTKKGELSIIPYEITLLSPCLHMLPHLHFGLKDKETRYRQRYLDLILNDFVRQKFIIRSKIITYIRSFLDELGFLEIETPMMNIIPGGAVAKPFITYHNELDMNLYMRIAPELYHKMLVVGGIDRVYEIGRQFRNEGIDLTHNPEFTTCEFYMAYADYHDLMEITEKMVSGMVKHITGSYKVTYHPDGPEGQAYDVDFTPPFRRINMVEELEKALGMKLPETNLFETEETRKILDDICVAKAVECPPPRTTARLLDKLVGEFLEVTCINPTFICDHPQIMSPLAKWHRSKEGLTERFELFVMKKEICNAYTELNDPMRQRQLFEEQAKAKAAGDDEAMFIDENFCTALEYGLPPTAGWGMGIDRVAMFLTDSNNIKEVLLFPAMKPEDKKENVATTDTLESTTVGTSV

| Substance | binding signal (scale: fold lower affinity than modified tRNALys3) | binding signal (fold higher affinity than IVT tRNALys3) (native modifications, named: m2G10, D20, S34 (mcm5s2U), R37 (ms2t6A), D47, psi55, 9 types, 14 modified nucleotides modeled) |
| --- | --- | --- |
| IVT unmodified tRNALys3 | 2.5 | – |
| cellular fully modified tRNALys3 | – | 2.5 |
